The text below walks through data of doi:10.1101/2020.08.31.274704.

For test [1], the target named is prefusion stabilized trimeric SARS-CoV-2 spike protein ectodomain (S-ECD) (SARS-CoV-2) (UniProt P0DTC2). Briefly: BLI.
For test [2] the target is unchanged. As to the kind of experiment: ELISA.

On to “ACE2 monomer, ACE2(1-615)-(GGGGS)5-HRV3C-eGFP-His8 (from UniProt Q9BYF1-1 18-615) (domain or fragment)”, for which, in test [1], the Kd is 25 nM. The substance further yielded an IC50 in test [2] of 27 nM.
